The record followed here is patent US20240366726A1 (Genentech, published 2024).

Test [1] has as its target T1, human CD122/CD132 on lymphocytes (NK cells and CD8+ T cells in human PBMCs) (human, UniProt P31785 23-369).
T1 sequence 1: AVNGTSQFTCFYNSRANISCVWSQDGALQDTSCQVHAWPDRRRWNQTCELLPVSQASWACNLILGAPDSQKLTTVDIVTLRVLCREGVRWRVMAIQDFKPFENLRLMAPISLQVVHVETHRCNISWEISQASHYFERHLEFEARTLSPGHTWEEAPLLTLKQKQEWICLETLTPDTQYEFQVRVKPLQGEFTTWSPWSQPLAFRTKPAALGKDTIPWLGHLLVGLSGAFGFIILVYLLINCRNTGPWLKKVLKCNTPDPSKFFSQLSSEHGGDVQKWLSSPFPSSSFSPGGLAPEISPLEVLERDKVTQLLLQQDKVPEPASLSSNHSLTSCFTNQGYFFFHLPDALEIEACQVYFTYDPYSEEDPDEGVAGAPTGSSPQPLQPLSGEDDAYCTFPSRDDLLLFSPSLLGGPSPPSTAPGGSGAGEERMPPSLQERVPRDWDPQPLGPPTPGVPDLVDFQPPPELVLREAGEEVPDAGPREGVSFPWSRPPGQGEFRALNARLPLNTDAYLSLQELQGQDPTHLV
T1 sequence 2: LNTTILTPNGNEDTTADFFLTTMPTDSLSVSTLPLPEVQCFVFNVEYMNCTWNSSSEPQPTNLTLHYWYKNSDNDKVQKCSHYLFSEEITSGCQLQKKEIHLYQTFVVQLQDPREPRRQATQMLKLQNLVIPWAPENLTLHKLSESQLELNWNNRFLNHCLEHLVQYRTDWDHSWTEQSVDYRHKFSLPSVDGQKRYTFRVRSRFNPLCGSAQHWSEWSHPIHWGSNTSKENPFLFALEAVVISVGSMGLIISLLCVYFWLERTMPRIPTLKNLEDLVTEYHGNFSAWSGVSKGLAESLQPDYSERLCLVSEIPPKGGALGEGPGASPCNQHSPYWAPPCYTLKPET
The experiment in a line: cell-based or functional assay.

Test [2] deals with T2, cynomolgus monkey CD122/CD132 on lymphocytes (NK cells and CD8+ T cells in cynomolgus monkey PBMCs) (cynomolgus monkey, UniProt Q38J85 27-551; A0A2K5VGJ6 23-369).
T2 sequence (looked up) 1: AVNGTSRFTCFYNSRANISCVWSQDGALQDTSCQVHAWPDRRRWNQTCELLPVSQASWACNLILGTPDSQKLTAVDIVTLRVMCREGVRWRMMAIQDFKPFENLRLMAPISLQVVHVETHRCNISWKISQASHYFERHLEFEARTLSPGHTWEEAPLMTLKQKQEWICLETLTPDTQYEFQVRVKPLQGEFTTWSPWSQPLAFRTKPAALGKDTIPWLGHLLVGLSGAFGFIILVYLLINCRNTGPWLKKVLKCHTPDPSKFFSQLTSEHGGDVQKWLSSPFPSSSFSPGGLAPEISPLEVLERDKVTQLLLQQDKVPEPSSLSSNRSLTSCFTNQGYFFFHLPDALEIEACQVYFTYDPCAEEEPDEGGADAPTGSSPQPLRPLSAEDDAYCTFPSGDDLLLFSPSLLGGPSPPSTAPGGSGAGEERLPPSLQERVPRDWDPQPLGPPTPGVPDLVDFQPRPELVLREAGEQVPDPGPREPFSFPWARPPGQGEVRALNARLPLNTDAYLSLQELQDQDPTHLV
T2 sequence (looked up) 2: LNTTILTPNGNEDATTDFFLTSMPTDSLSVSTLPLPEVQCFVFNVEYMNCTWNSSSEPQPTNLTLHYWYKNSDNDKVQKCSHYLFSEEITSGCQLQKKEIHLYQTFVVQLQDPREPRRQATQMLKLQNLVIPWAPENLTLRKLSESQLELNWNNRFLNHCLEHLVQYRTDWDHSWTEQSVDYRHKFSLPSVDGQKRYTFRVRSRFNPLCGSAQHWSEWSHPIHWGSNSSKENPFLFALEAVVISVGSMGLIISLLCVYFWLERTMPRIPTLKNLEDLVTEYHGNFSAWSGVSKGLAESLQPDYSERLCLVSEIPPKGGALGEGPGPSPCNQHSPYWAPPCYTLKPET
The experiment in a line: cell-based or functional assay.

The target in test [3] is human complement component 1q (C1q) (human, UniProt P02745 23-245; P02746 28-253; P02747 29-245). The experiment in a line: BLI; tested as XENP24306+XENP32803.
In test [4] the target is T3, cynomolgus monkey FcRn (cynomolgus monkey, UniProt Q8SPV9 24-297; Q8SPW0 21-119).
T3 construct: also called neonatal Fc receptor
Description: Bio-Layer Interferometry, pH 6.0; tested as ~82%/~18% mixture.

Test [5] addresses T4, mouse FcRn (mouse, UniProt Q61559 22-297; P01887 21-119).
T4 construct: also called neonatal Fc receptor
T4 sequence (looked up): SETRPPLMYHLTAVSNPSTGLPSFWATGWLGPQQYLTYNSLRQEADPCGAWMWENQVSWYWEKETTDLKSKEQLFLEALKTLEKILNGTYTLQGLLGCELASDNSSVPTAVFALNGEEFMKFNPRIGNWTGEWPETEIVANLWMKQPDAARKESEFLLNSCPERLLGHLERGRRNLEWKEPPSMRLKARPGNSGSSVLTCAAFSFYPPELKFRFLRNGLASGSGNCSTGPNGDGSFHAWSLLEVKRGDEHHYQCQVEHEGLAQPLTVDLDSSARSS
T4 sequence (b2m, looked up): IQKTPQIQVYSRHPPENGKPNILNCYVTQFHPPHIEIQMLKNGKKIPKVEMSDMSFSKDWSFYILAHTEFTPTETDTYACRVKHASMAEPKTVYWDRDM
The description is as above.

The target of test [6] is T5, human FcRn (human, UniProt P55899 24-297; P61769 21-119).
T5 construct: also called neonatal Fc receptor
Described as above.

T5 sequence (P55899 24-297 limits assumed, chain 1 of 2): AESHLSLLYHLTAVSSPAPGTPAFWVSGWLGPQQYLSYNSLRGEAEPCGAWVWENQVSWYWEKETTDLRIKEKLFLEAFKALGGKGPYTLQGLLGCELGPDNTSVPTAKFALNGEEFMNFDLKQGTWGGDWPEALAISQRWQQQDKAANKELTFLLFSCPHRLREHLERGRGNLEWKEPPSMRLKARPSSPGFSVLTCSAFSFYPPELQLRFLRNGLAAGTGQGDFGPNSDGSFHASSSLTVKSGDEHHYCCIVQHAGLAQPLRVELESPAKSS
T5 sequence (P61769 21-119 limits assumed, chain 2 of 2): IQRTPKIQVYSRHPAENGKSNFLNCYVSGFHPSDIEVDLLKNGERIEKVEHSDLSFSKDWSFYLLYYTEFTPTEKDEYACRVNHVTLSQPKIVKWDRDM
T3 sequence (Q8SPV9 24-297 limits assumed, chain 1 of 2): as the sequence (P55899 24-297 limits assumed, chain 1 of 2) above, with N39D, E44Q, G99S, S189G, S190N, L217M, S269T counted along it
T3 sequence (Q8SPW0 21-119 limits assumed, chain 2 of 2): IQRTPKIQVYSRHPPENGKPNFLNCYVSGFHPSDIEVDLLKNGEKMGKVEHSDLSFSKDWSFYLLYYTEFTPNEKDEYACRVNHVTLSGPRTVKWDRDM
Chain of human complement component 1q (C1q) (P02745 23-245 limits assumed, chain 1 of 3): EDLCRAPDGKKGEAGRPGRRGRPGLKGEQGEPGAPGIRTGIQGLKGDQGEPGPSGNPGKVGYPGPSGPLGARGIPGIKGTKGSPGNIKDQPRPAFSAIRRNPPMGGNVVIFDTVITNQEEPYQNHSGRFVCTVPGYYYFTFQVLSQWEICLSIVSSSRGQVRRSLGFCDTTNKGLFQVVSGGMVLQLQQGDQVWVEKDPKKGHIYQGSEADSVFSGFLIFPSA
Chain of human complement component 1q (C1q) (P02746 28-253 limits assumed, chain 2 of 3): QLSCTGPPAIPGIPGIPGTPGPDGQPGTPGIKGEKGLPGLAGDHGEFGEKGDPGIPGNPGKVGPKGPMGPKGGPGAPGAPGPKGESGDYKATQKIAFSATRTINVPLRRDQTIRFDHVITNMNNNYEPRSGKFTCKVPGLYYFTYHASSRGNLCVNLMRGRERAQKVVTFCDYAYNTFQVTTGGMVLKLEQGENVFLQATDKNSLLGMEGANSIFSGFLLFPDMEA
Chain of human complement component 1q (C1q) (P02747 29-245 limits assumed, chain 3 of 3): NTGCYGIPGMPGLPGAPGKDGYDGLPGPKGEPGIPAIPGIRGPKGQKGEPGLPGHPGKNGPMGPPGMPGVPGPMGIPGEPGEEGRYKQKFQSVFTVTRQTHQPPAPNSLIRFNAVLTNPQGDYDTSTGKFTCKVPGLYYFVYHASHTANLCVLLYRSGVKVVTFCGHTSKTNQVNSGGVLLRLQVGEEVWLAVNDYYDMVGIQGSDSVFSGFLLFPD

B1: XENP24306 (Fc fusion)
chain 1: NWVNVISDLKKIEDLIQSMHIDATLYTESNVHPSCKVTAMKCFLLELQVISLESGDASIHDTVQDLIILANNSLSSNGNVTESGCKECEELEEKNIKEFLQSFVHIVQMFINTSGGGGSEPKSSDKTHTCPPCPAPPVAGPSVFLFPPKPKDTLMISRTPEVTCVVVDVKHEDPEVKFNWYVDGVEVHNAKTKPREEEYNSTYRVVSVLTVLHQDWLNGKEYKCKVSNKALPAPIEKTISKAKGQPREPQVYTLPPSREEMTKNQVSLTCDVSGFYPSDIAVEWESDGQPENNYKTTPPVLDSDGSFFLYSKLTVDKSRWEQGDVFSCSVLHEALHSHYTQKSLSLSPGK
chain 2: ITCPPPMSVEHADIWVKSYSLYSRERYICNSGFKRKAGTSSLTECVLNKATNVAHWTTPSLKCIRGGGGSEPKSSDKTHTCPPCPAPPVAGPSVFLFPPKPKDTLMISRTPEVTCVVVDVKHEDPEVKFNWYVDGVEVHNAKTKPREEQYNSTYRVVSVLTVLHQDWLNGKEYKCKVSNKALPAPIEKTISKAKGQPREPQVYTLPPSREQMTKNQVKLTCLVKGFYPSDIAVEWESNGQPENNYKTTPPVLDSDGSFFLYSKLTVDKSRWQQGNVFSCSVLHEALHSHYTQKSLSLSPGK
notes: Never tested alone: every experiment used a combination of XENP24306 (~82%) and XENP32803 (~18%); Each result of the combination is written once for each of the two proteins; also called IL15/IL15Rα heterodimeric protein; XENP24306+XENP32803 (about 82% of the tested combination); copies: 1 + 1
For B1, in test [1], the “EC50 of human CD8+ T cell proliferation (Ki67+) in human PBMCs” value turned out to be 12.7 µg/mL; the “EC50 of human NK-cell proliferation (Ki67+) in human PBMCs” value is 1.2 µg/mL; the “potency on human CD8+ terminal effector T cells (Ki67 proliferation), fold lower than recombinant wild-type IL-15” value was roughly 900 fold; the “potency on human CD8+ terminal effector T cells (Ki67 proliferation), fold lower than wild-type IL-15/wild-type IL-15Rα heterodimer Fc fusion XENP22853” value is roughly 400 fold. In test [2], the “EC50 of CD8+ T cell proliferation in cynomolgus monkey PBMCs” value was found to be 3.8 µg/mL and the “EC50 of NK-cell proliferation in cynomolgus monkey PBMCs” value is 0.5 µg/mL. In addition, in test [3], the binding result was “no binding”. The binding result in test [4] is reported as “binds”. The binding result in test [5] is “binds”. In test [6], the binding result is “binds”.

B2: XENP32803 (Fc fusion)
chain 1: NWVNVISDLKKIEDLIQSMHIDATLYTESNVHPSCKVTAMKCFLLELQVISLESGDASIHDTVQDLIILANNSLSSNGNVTESGCKECEELEEKNIKEFLQSFVHIVQMFINTSGGGGSEPKSSDKTHTCPPCPAPPVAGPSVFLFPPKPKDTLMISRTPEVTCVVVDVKHEDPEVKFNWYVDGVEVHNAKTKPREEEYNSTYRVVSVLTVLHQDWLNGKEYKCKVSNKALPAPIEKTISKAKGQPREPQVYTLPPSREEMTKNQVSLTCDVSGFYPSDIAVEWESDGQPENNYKTTPPVLDSDGSFFLYSKLTVDKSRWEQGDVFSCSVLHEALHSHYTQKSLSLSPGK
chain 2: ITCPPPMSVEHADIWVKSYSLYSRERYICNSGFKRKAGTSSLTECVLNKATNVAHWTTPSLKCIRGGGGSEPKSSDKTHTCPPCPAPPVAGPSVFLFPPTPKDTLMISRTPEVTCVVVDVKHEDPEVKFNWYVDGVEVHNAKTKPREEQYNSTYRVVSVLTVLHQDWLNGKEYKCKVSNKALPAPIEKTISKAKGQPREPQVYTLPPSREQMTKNQVKLTCLVKGFYPSDIAVEWESNGQPENNYKTTPPVLDSDGSFFLYSKLTVDKSRWQQGNVFSCSVLHEALHSHYTQKSLSLSPGK
notes: Never tested alone: every experiment used a combination of XENP24306 (~82%) and XENP32803 (~18%); Each result of the combination is written once for each of the two proteins; also called IL15/IL15Rα heterodimeric protein; XENP24306+XENP32803 (about 18% of the tested combination); copies: 1 + 1
For the molecule B2, in test [1], the “EC50 of human CD8+ T cell proliferation (Ki67+) in human PBMCs” value was determined as 12.7 µg/mL; the “EC50 of human NK-cell proliferation (Ki67+) in human PBMCs” value was 1.2 µg/mL; the “potency on human CD8+ terminal effector T cells (Ki67 proliferation), fold lower than recombinant wild-type IL-15” value was roughly 900 fold; the “potency on human CD8+ terminal effector T cells (Ki67 proliferation), fold lower than wild-type IL-15/wild-type IL-15Rα heterodimer Fc fusion XENP22853” value was roughly 400 fold. For the same molecule, in test [2], the “EC50 of CD8+ T cell proliferation in cynomolgus monkey PBMCs” value came to 3.8 µg/mL and the “EC50 of NK-cell proliferation in cynomolgus monkey PBMCs” value worked out at 0.5 µg/mL. Also, the binding result in test [3] is “no binding”. In addition, the binding result in test [4] was “binds”. In test [5], the binding result is recorded as “binds”. For the same molecule, the binding result in test [6] is listed as “binds”.
